The target in this test is SARS-CoV-2 Omicron BA.1 Spike receptor-binding domain (SARS-CoV-2 Omicron BA.1). Kind of test: BLI; RBD1 with hACE2, 'with the same assay condition' as Nb4 with RBD1. In general terms: In BLI a coated tip is dipped into the sample, and binding shifts an interference pattern.

angiotensin-converting enzyme 2, extracellular, sequence (Q9BYF1 20-615): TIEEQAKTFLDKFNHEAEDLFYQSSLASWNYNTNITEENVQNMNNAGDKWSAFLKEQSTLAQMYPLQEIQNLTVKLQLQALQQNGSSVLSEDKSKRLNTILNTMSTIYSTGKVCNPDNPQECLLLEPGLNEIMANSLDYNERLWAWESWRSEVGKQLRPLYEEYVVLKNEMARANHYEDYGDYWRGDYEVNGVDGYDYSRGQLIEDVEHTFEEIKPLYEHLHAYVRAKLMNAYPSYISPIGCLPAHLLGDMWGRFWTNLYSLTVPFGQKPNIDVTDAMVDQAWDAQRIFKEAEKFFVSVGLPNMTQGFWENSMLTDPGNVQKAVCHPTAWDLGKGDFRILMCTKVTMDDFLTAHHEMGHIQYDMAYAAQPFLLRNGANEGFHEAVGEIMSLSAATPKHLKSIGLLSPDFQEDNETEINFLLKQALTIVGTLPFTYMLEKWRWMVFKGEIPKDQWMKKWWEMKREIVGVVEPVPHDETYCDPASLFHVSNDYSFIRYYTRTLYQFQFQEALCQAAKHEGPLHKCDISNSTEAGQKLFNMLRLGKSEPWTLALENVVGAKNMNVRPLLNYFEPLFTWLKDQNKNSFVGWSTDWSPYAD

By Kd is commonly meant the constant that tells how readily two partners part at equilibrium. A higher Kd goes with a looser complex. “angiotensin-converting enzyme 2, extracellular (from UniProt Q9BYF1 20-615) (receptor)” showed a Kd of 9 nM.

Values taken from paper PMC10600506.
